Where a chain is given by its changes, count along the chain named.
Assays:
Assay in all cases: cell_activity; CHO iGFFP reporter
LOX 3-4m.956 = target: T1, LOX 3-4m.956 (artificial (I-CreI derived))
T1 chain: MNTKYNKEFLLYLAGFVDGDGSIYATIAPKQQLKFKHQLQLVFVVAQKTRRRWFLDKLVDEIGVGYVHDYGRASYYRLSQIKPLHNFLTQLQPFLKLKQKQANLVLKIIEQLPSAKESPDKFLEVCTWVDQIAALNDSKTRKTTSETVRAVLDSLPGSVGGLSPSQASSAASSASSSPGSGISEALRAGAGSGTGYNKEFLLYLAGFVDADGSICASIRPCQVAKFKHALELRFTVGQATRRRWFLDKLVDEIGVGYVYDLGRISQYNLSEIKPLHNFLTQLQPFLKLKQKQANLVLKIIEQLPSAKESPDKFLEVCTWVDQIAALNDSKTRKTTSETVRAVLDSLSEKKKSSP
From the text: (§1) A CHO cell reporter system (see WO/2012/167192, FIG. 3) was used to determine whether the engineered meganucleases generated in these studies could recognize and cleave the modified LOX 3-4 recognition sequences in Table 87. To perform the assay, a pair of CHO cell reporter lines were produced, which carried a non-functional Green Fluorescent Protein (GFP) gene expression cassette integrated into the genome of the cell. The GFP gene in each cell line was interrupted by a pair of recognition sequences such that intracellular cleavage of either recognition sequence by a meganuclease would stimulate a homologous recombination event resulting in a functional GFP gene. In both cell lines, one of the recognition sequences was derived from the LOX 3-4 recognition sequence (i.e., those sequences disclosed in Table 87), and the second recognition sequence was specifically recognized by a control meganuclease called “CHO 23/24.” CHO reporter cells comprising a recognition sequence derived from the LOX 3-4 recognition sequence and the CHO 23/24 recognition sequence are referred to herein as “test cells.”
(§2) Novel engineered meganucleases derived from the LOX 3-4x.109 meganuclease were prepared by making amino acid substitutions at one or more positions in the first subunit and one or more positions in the second subunit. These engineered meganucleases were then evaluated for cleavage of the LOX 3-4 recognition sequence modified to have an ACGA center sequence (SEQ ID NO: 68) in the CHO reporter assay according to Example 1.

LOX 3-4m.1036 = target: T2, LOX 3-4m.1036 (artificial (I-CreI derived))
T2 chain: T1 chain with G19A, A210G, A239Q, E271Q, K330R
From the text: as §1, §2

LOX 3-4m.1044 = target: T3, LOX 3-4m.1044 (artificial (I-CreI derived))
T3 chain: T1 chain with G19A, R50T, A210G, A239K, R241S, I264V, K330R
From the text: as §1, §2

LOX 3-4m.1013 = target: T4, LOX 3-4m.1013 (artificial (I-CreI derived))
T4 chain: T1 chain with R50V, A239H, R241S, E271Q
From the text: as §1, §2

LOX 3-4m.869 = target: T5, LOX 3-4m.869 (artificial (I-CreI derived))
T5 chain: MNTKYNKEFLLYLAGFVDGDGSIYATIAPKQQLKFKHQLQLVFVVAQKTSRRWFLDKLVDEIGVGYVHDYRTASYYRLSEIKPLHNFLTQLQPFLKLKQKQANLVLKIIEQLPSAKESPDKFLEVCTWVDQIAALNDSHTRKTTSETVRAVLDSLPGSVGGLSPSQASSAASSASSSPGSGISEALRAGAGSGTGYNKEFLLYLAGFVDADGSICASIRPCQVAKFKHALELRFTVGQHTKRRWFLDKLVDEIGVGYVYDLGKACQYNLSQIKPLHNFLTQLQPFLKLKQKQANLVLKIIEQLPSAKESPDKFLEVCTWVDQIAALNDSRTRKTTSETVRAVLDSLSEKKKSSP
From the text: as §1
as §2, with “sequence, which normally comprises” for “sequence modified to have”, “ACAT” for “ACGA”, “44)” for “68)”

LOX 3-4m.893 = target: T6, LOX 3-4m.893 (artificial (I-CreI derived))
T6 chain: T1 chain with G19A, A210G, A239G, R241K, R263K, I264A, S265C
From the text: as §1
as §2, with “sequence, which normally comprises” for “sequence modified to have”, “ACAT” for “ACGA”, “44)” for “68)”

LOX 3-4m.949 = target: T7, LOX 3-4m.949 (artificial (I-CreI derived))
T7 chain: T1 chain with G19A, K48N, A210G, A239S, R241K, G262E, I264A, S265C, E271Q
From the text: as §1
as §2, with “sequence, which normally comprises” for “sequence modified to have”, “ACAT” for “ACGA”, “44)” for “68)”

LOX 3-4m.925 = target: T8, LOX 3-4m.925 (artificial (I-CreI derived))
T8 chain: T1 chain with A239H, R241G, I264G, S265C, E271Q
From the text: as §1
as §2, with “sequence, which normally comprises” for “sequence modified to have”, “ACAT” for “ACGA”, “44)” for “68)”

LOX 3-4m.494 = target: T9, LOX 3-4m.494 (artificial (I-CreI derived))
T9 chain: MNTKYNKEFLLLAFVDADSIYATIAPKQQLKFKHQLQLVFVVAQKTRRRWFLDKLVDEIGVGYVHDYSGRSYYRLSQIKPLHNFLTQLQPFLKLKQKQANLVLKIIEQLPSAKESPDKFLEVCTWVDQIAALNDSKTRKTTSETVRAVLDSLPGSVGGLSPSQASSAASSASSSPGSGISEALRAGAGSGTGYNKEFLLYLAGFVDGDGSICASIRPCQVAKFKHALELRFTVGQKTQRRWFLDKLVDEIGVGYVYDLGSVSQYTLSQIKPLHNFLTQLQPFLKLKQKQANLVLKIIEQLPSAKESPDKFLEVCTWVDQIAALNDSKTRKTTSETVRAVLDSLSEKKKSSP
From the text: as §1
as §2, with “subunit. The N-terminal subunit recognizes the reverse complement of the AG portion of the four base pair center sequence, which is CT, and the C-terminal subunit recognizes the GC portion of the […] center sequence.” for “subunit.”, “a GCAG” for “an ACGA”, “326)” for “68)”, “1. The substitutions in each subunit are provided in Tables 180 and 181, respectively.” for “1.”

LOX 3-4m.524 = target: T10, LOX 3-4m.524 (artificial (I-CreI derived))
T10 chain: T9 chain with K236H, Q238R, S260R, V261T
From the text: as §1
as §2, with “subunit. The N-terminal subunit recognizes the reverse complement of the AG portion of the four base pair center sequence, which is CT, and the C-terminal subunit recognizes the GC portion of the […] center sequence.” for “subunit.”, “a GCAG” for “an ACGA”, “326)” for “68)”, “1. The substitutions in each subunit are provided in Tables 180 and 181, respectively.” for “1.”

LOX 3-4m.509 = target: T11, LOX 3-4m.509 (artificial (I-CreI derived))
T11 chain: T9 chain with K236H, Q238R
From the text: as §1
as §2, with “subunit. The N-terminal subunit recognizes the reverse complement of the AG portion of the four base pair center sequence, which is CT, and the C-terminal subunit recognizes the GC portion of the […] center sequence.” for “subunit.”, “a GCAG” for “an ACGA”, “326)” for “68)”, “1. The substitutions in each subunit are provided in Tables 180 and 181, respectively.” for “1.”

B1: LOX 3-4 ACGA (dsDNA)
DNA 1: GTATAGCATACGATATACGAAG
DNA 2: CTTCGTATATCGTATGCTATAC
B1 was tested. Which activity (LOX 3-4m.956) did it give?
Its activity is 4.7 % GFP.

What about the activity (LOX 3-4m.1036) of the same binder?
Its activity is 5 % GFP.

And the activity (LOX 3-4m.1044)?
Its activity is 5.8 % GFP.

And the activity (LOX 3-4m.1013)?
Its activity is 1.7 % GFP.

B2: LOX 3-4 ACAT (native LOX 3-4 site, SEQ 6) (dsDNA)
DNA 1: GTATAGCATACATTATACGAAG
DNA 2: CTTCGTATAATGTATGCTATAC
B2 was tested. Which activity (LOX 3-4m.869) did it give?
Its activity is 11.2 % GFP.

What about the activity (LOX 3-4m.893) of the same binder?
The activity was 13.1 % GFP.

What about the activity (LOX 3-4m.949) of the same binder?
The activity was 12.5 % GFP.

And the activity (LOX 3-4m.925)?
The activity was 12.2 % GFP.

B3: LOX 3-4 GCAG (dsDNA)
DNA 1: GTATAGCATGCAGTATACGAAG
DNA 2: CTTCGTATACTGCATGCTATAC
Which activity (LOX 3-4m.494) does the source give for B3 here?
Its activity is 13.8 % GFP.

What about the activity (LOX 3-4m.524) of the same binder?
The activity was 16.6 % GFP.

What about the activity (LOX 3-4m.509) of the same binder?
Its activity is 13.4 % GFP.

— patent US20220195407, “OPTIMIZATION OF ENGINEERED MEGANUCLEASES FOR RECOGNITION SEQUENCES” (Precision BioSciences, Inc., published 2022)
